Test [1] has as its target BJ kappa Bo (human). Briefly: haemagglutination of sheep RBC coated with BJ kappa Bo.
Test [2] addresses BJ kappa Ke (human). The test is described as follows: haemagglutination of sheep RBC coated with BJ kappa Ke.

Our source for the MAb dilution used against coated red cells values is patent US20110229908A1.

B1: monoclonal antibody 1B6 (antibody, mouse IgG1, V domains shown)
VH: RQFPGNKLEWMGYINYSGITSYNPSLKSRFSITRDTSKNQFFLQLNSVTTEDTATYYCASWYYGNWYFDVWGAGTTVTVSS
VL: DIQMTQSPASLSVSVGETVTITCRASENIYSNLAWYQQKQGNSPQLLVYAATNLADGVPSRFSGSGSGTQYSLKINSLQSEDFGNYYCQHFWGTPWTFGGGTKLEIKR
Take B1: the MAb dilution used against coated red cells in test [1] is 1e-05 dilution.

B2: monoclonal antibody KA1 (antibody, V domains shown)
VH: DVQLQESGPGLVNPSQSLSLTCTVTGYSITGDYAWNWIRQFPGNKLEWMGYISYSGLTSYNPSLKSRISITRDTSKNQFFLQLNSVATEDTATYYCTSFYYGYWYFDVWGAGTTVTVSS
VL: DIQMTQSPASLSASVGETVTITCRASENIYSFLTWYLQKQGKSPQLLVNNAKTLAEGVPSRFSGSGSGSQFSLKINSLQPEDFGTYYCQHHYGTPYTFGGGTKLEIKR
Regarding B2, in test [2], the MAb dilution used against coated red cells was 1e-05 dilution.
